# Assay results taken from patent US6638508B2, “Modified avidin-type molecules as targeting agents for the liver and cells of the reticuloendothelial system” (Yeda Research and Development Co., Ltd., priority 1995, dated 2003).
# Legend:
# [1] = Pt content in organs by flame atomic absorption spectrometry after CDDP complexed to BT1-CMdex-TNP-St or free CDDP; format: in vivo, mice; conditions: 2 h following injection of 300 μg free CDDP
# Experimental: Pharmacokinetic studies confirmed the assumption of sustained release and prolonged maintenance of the complexed drug, as compared to the rapid elimination and inactivation of the free drug (Schechter et al., 1989a). Complexing CDDP to BT1-CMdex: BT1-CMdex (T-40) (0.15mM) was reacted with CDDP in DDW at a molar ratio of 1:60 for 24 h at 37° C. Following dialysis, the resulting BT1-CMdex-Pt contained 23-27 CDDP/CMdex. The complex BT1-CMdex-CDDP was reacted with TNP-St (at a ratio of 4:1) for targeting to the liver. […] To show the actual targeting of CDDP to the liver, CDDP was quantitatively determined in organs obtained at set time intervals following injection of 185 μg CDDP complexed to BT1-CMdex-TNP-St. Blood and organs were blended in an Ika Werk Ultra-Turrax blender (Jankel&Kunkel KG) in 5×Vol/tissue weight of 0.1N NaOH for 30 seconds. After centrifugation, the supernatants were filtered through Minisart 5 μm filter and the Pt content in the samples was determined by flame atomic absorption spectrometry (AA) at 265.9 nm in air-acetylene flame (in a Perkin Elmer 5100 PC spectrophotometer). Standards were prepared in a solution with matrix identical to that of the samples (i.e., normal tissues), to account for possible matrix interference. Results are expressed as %/g, i/organ or μg/organ in individual mice.
# [2] = [3H] radioactivity in tissue extracts after BT1-CMdex-FUR ([3H]-uridine) alone or complexed to TNP-St; format: in vivo, mice; conditions: 1 and 4 h
# Experimental: The actual targeting of FUR to the liver was carried out by a BT1-CMdex (T-40)-FUR product in which FUR was trace-labeled with [^3H] uridine. Mice were injected with BT1-CMdex-FUR-([^3H]-uridine) alone or complexed to TNP-St and at set time intervals blood was withdrawn, organs were dissected out and weighed. Tissue extracts were prepared by blending blood and organs in an Ika Werk Ultra-Turrax blender in 5× vol (ml)/tissue weight (g) of 0.1N NaOH for 30 sec. After centrifugation, 50 μl samples were counted for [^3H] radioactivity. Results are expressed as %/g tissue or %/organ. As shown in FIGS. 11A and 11B, levels of untargeted BT1-CMdex-FUR ([^3H]-uridine) were low. […] Radioactivity levels in other organs were in the range of 5%/g tissue or less than 1%/organ (FIG. 11B). It can be calculated that upon injection of 200μg TNP-St as a vehicle for BT1-CMdex-FUR, 25 μg of the drug can be accumulated per gram liver.
# [3] = Biodistribution of radioiodinated (125I) proteins, modified avidin-type molecules and their complexes after i.v. injection
# Experimental: (ii) Animals. Age-matched CD-1 male mice (6-12 weeks old) were used in the experiments.
# (iii) Biodistribution experiments. Groups of age-(6-12 weeks) and weight-matched male CD-1 mice were given intravenous (i.v.) injections into the lateral tail vein of radioiodinated ^125I-TNP- or ^125I-lactosylated-St (most biodistribution experiments were done in the range of 1-10 μg protein, 1 mCi of ^125I) into the lateral tail vein. At the time intervals indicated, blood samples were withdrawn from the tail, the mice were killed and their organs were dissected out, washed in PBS, blotted dry, weighed and counted for radioactivity. […] In subsequent experiments, CD-1 male mice were used and the results are presented as %/g or %/organ for single a single mouse or %/g ±SD or %/organ ±SD for pairs of mice unless otherwise stated.
# (ii) Radioiodination. Proteins (0.2 mg/0.2ml) in 0.2M phosphate buffer pH 8.0 were reacted for 2 min with Na^125I (0.5 mCi for biodistribution experiment and 2.5mCi for external monitoring) in the presence of Chloramine-T (2mg/ml, 10 or 100 μl) in PBS for 2 min. The reaction, which facilitates attachment of the radioactive iodine to tyrosines, was terminated by the addition of sodium metabisulfite (2mg/ml, 10 or 100 μl) in PBS for 2 min followed by the addition of potassium iodide and carrier BSA (1 mg of each/0.1 ml PBS). The radioiodinated proteins ^125I-TNP-proteins were then chromatographed on Sephadex G-25 in PBS. TNP modification can take place before or after radioiodination. Avidin and TNP-Av, being low in tyrosine content (molar ratio of 4 tyrosine/avidin as compared to 24 tyrosine/streptavidin), were radiolabeled by ^125I-biotinyl-tyrosine as described below in Example 6.
# [4] = Toxicity studies: liver histology, body weight and survival; format: in vivo, CD-1 mice; conditions: dose of 300 μg, observed for 4 months
# [5] = mouse, in vivo; cited from earlier work
compound,measurement,setting,value
"N.N.[Cl][Pt][Cl] [CDDP, cis-dichlorodiamine platinum (cisplatin)]",Pt in liver or other organs,[1],essentially no Pt could be found
"O=c1[nH]c(=O)n([C@@H]2O[C@H](CO)[C@@H](O)[C@H]2O)cc1F [FUR, 5-fluorouridine]",tissue levels of free drug,[2],around 1 %/g tissue
DTPA-Gd substituted St: Gd-DTPA derivative of streptavidin,liver accumulation,"[3]; liver, 24 h, FIG. 16",did not accumulate in the liver
"Lac-St: lactosylated streptavidin, molar substitution ratio 5:1","non-hepatic values, fold lower than St or TNP-St","[3]; mouse, in vivo",10-20 fold
"TNP-Av: avidin modified with 2,4,6-trinitrophenyl (TNP) groups",accumulation in the liver,"[3]; mouse, in vivo",30-40 %/g
same,accumulation in the spleen,"[3]; mouse, in vivo",10-15 %/g
same,effect on body weight or survival,[4],did not seem to affect
"TNP-NL-Av: TNP-modified NeutraLite Avidin, a deglycosylated form of avidin",accumulation in the spleen,"[3]; mouse, in vivo",up to 20 %/g
^125I-BT-St: radioiodinated biotinyl-tyrosine complexed to unmodified streptavidin,"accumulation in whole kidney, % of injected dose of radioactivity/organ","[3]; mouse, in vivo",10%
^125I-BT-TNP-St: radioiodinated biotinyl-tyrosine complexed to TNP-streptavidin,"accumulation in whole liver, % of injected dose of radioactivity/organ","[3]; mouse, in vivo",66-68%
streptavidin,accumulation in the kidney,"[3]; mouse, in vivo",70-80%
same,blood levels,"[3]; mouse, in vivo",22-33 %/g
same,"levels in other tissues, including the liver","[3]; mouse, in vivo",< 10 %/g
same,% of the total injected dose accumulated in each kidney,[5],15%
same,levels in other organs,[5],0.3-4 %/g
